Patent publication US20180214548A1 (SHANGHAI YUNYI HEALTHCARE AND TECHNOLOGY, published 2018)
Each block holds one binder with its values, some of them ahead of it.

Tests used:
B7-1 = biological target: T1, B7-1 (human, UniProt P33681 35-242); experiment: ELISA on coated protein (Table 22)
T1 sequence (looked up): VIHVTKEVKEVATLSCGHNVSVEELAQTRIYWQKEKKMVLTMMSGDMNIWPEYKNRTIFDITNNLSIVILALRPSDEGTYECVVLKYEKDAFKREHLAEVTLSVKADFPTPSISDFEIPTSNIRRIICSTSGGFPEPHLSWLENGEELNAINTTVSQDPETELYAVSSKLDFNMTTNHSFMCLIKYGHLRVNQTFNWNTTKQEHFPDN

ICOS [1] = biological target: T2, ICOS (human, UniProt Q9Y6W8 21-140, limits assumed); experiment: ELISA on coated protein (Table 22)
T2 sequence (looked up): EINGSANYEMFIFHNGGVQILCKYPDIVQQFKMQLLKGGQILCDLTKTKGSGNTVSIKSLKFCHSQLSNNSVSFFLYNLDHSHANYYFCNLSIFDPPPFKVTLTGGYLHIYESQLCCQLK

CTLA4 [2] = biological target: T3, CTLA4 (human, UniProt P16410 37-162, limits assumed); experiment: ELISA on coated protein (Table 22)
T3 sequence (looked up): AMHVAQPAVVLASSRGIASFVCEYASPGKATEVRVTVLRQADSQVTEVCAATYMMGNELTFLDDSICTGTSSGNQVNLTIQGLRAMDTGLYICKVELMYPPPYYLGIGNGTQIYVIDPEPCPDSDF

[3] = biological target: T4, full length human PD-1 on cells (human, UniProt Q15116 25-288); experiment: cell-based receptor ligand blocking assay (fully human antibodies), blocked ligand PD-L1
T4 construct: Also used here for PD-1 on human T cells/PBMC; also called CHO-K1-hPD-1; hPD-1
T4 sequence (Q15116 25-288 limits assumed): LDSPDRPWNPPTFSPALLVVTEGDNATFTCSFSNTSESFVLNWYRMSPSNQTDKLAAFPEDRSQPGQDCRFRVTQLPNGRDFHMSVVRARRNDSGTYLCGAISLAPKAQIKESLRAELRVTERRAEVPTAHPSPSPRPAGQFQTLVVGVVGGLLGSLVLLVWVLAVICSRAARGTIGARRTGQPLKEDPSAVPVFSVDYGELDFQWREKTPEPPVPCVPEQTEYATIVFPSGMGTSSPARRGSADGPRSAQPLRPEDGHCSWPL

[4] = biological target: T5, human PD-1^ECD-hFc protein (Immunogen A) (human, UniProt Q15116 25-167); experiment: protein-based receptor ligand blocking assay (fully human antibodies), blocked ligand PD-L1
T5 construct: Biotinylated for the Octet assay; also called PD-1-hFc; hPD-1^ECD-hFc; not shown: human IgG Fc fragment (hFc)
Method: Purified PD-1^ECD-hFc (Example 2) was diluted with PBS to a final concentration of 1.0 ug/mL, and 100 uL diluted PD-1^ECD-hFc were added to each well of a 96-well plate that was then sealed with plastic film and incubated at 4° C. overnight. The plate was washed twice with wash buffer (PBS+0.01% (v/v) Tween 20) and incubated with blocking buffer (PBS+[…]) at room temperature for 2 hours. The blocking buffer was aspirated, and 50 uL purified anti-PD-1 antibodies from Example 2 were added to each well of 96-well plate. […] The plate was washed three times with wash buffer (PBS+0.01% (v/v) Tween 20). 100 uL HRP-conjugated streptavidin (Sigma) were then added to each well and incubated at 37° C. for 2 hours. The plate was then washed three times with wash buffer, and 100 uL TMB substrate were added to each well. After 30 minutes of incubation at room temperature, the reaction was stopped by adding 100 uL stop solution (0.1N HCl). The absorbance at OD450 nm was measured with an ELISA plate reader (384plus SpectraMax, Molecular Devices).
T5 sequence (Q15116 25-167): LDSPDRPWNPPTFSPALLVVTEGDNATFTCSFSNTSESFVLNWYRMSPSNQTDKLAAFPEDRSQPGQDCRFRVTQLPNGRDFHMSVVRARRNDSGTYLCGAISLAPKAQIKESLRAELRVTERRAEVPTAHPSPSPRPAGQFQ

[5] = biological target: T5, human PD-1^ECD-hFc protein (Immunogen A); experiment: protein-based receptor ligand blocking assay (fully human antibodies), blocked ligand PD-L2
[6] = biological target: T6, cyno monkey PD-1^ECD-hFc protein (cyno monkey, UniProt B0LAJ3 25-167); experiment: ELISA, coated cyno PD-1ECD-hFc
T6 construct: also called cyno PD-1^ECD-hFc; not shown: human IgG Fc fragment (hFc) and its junction to the ECD
T6 sequence (B0LAJ3 entry or part of it limits assumed): as the sequence (Q15116 25-167) above, with D2E, P10A, V19L, T35A, Q75R counted along it

[7] = biological target: T7, human PD-1^ECD-hFc protein (Immunogen A) (human, UniProt Q15116 25-167); experiment: ELISA, coated human PD-1ECD-hFc
T7 construct: also called PD-1-hFc; hPD-1^ECD-hFc; not shown: human IgG Fc fragment (hFc)
T7 sequence (Q15116 25-167): as the sequence (Q15116 25-167) above

[8] = biological target: T8, human PD-1, full length, on cells (human, UniProt Q15116 25-288); experiment: flow cytometry on CHO-K1-hPD-1 cells
T8 construct: whole, on cells; in the lymphocyte assays the natural PD-1 of human T cells/PBMCs; also called hPD-1; CHO-K1-hPD-1
T8 sequence (Q15116 25-288): as the sequence (Q15116 25-288 limits assumed) above

[9] = biological target: T7, human PD-1^ECD-hFc protein (Immunogen A); experiment: ELISA, coated protein, antibody concentration not given
CD28 = CD28 (human, UniProt P10747 19-152); experiment: as above
CD28, sequence (P10747 19-152 limits assumed): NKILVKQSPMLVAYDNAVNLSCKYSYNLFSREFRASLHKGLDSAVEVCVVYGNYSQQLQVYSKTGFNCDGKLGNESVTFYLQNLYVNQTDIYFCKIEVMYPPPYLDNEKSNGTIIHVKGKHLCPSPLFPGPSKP

B7.1 = biological target: T9, B7.1 (human, UniProt P33681 35-242); experiment: as above
T9 sequence (looked up): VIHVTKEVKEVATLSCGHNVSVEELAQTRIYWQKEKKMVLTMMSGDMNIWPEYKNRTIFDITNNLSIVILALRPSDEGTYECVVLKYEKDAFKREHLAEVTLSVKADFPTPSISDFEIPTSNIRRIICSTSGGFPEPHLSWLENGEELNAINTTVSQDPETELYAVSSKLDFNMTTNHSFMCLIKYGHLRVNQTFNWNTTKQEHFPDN

ICOS [10] = biological target: T10, ICOS (human, UniProt Q9Y6W8 21-140, limits assumed); experiment: as above
T10 sequence (looked up): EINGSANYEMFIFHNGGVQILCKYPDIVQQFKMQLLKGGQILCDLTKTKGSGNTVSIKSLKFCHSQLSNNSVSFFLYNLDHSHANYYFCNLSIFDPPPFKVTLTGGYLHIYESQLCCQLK

CTLA4 [11] = biological target: T11, CTLA4 (human, UniProt P16410 37-162, limits assumed); experiment: as above
T11 sequence (looked up): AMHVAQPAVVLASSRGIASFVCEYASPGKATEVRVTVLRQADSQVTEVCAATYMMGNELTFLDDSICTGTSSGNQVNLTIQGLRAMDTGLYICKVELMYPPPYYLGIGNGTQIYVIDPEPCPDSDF

NC-Fc = biological target: T12, NC-Fc; experiment: as above
T12 construct: seemingly a negative control Fc protein

binding result (B7-1): no binding
binding result (ICOS [1]): no binding
binding result (CTLA4 [2]): no binding
IC50 (read off the curve) [3]: ~5 nM
IC50 (read off the curve) [4]: ~1 nM
IC50 (read off the curve) [5]: ~1 nM
B1: fully human anti-PD-1 antibody 21G8F11 (antibody, human IgG4 S228P, kappa, V domains shown)
VH: EVQLLESGGGLAQPGGSLRLSCAASGFSFNTYLMHWVRQAPGKGLEWVSAISGGGGNTYYADSVKGRFTISRDNSKNTLYLQMNSLRAEDTAVYYCAKENRIPVAPFDYWGQGTLVTVSS
VL: DIQMTQSPSTLSASVGDRVTITCRASQSISTWLAWYQQKPGKAPKLLIYKASSLESGVPSRFSGSGSGTEFTLTISSLQPDDLATYYCQQYNSFSWTFGQGTKVEIKR
notes: also called 21G8F11 (fully human, IgG4 S228P / kappa)

OD450 nm at 0 nM [6]: 0.19 OD450
OD450 nm at 0.0001 nM [6]: 0.15 OD450
OD450 nm at 0.001 nM [6]: 0.22 OD450
OD450 nm at 0.01 nM [6]: 0.51 OD450
OD450 nm at 0.1 nM [6]: 2.39 OD450
OD450 nm at 1 nM [6]: 2.99 OD450
OD450 nm at 10 nM [6]: 3.02 OD450
OD450 nm at 100 nM [6]: 3 OD450
OD450 nm at 0 nM [7]: 0.18 OD450
OD450 nm at 0.0001 nM [7]: 0.16 OD450
OD450 nm at 0.001 nM [7]: 0.26 OD450
OD450 nm at 0.01 nM [7]: 0.58 OD450
OD450 nm at 0.1 nM [7]: 2.62 OD450
OD450 nm at 1 nM [7]: 3.03 OD450
OD450 nm at 10 nM [7]: 3.02 OD450
OD450 nm at 100 nM [7]: 3.03 OD450
MFI at 0 nM [8]: 48.8 MFI
MFI at 0.01 nM [8]: 1020 MFI
OD450 nm [9]: 2.7 OD450
OD450 nm (CD28): 0.27 OD450
OD450 nm (B7.1): 0.25 OD450
OD450 nm (ICOS [10]): 0.16 OD450
OD450 nm (CTLA4 [11]): 0.09 OD450
OD450 nm (NC-Fc): 0.21 OD450
B2: fully human anti-PD-1 antibody 21G8F11 (antibody, human IgG4 S228P, kappa, V domains shown)
VH: EVQLLESGGGLAQPGGSLRLSCAASGFSFNTYLMHWVRQAPGKGLEWVSAISGGGGNTYYADSVKGRFTISRDNSKNTLYLQMNSLRAEDTAVYYCAKENRIPVAPFDYWGQGTLVTVSS
VL: DIQMTQSPSTLSASVGDRVTITCRASQSISTWLAWYQQKPGKAPKLLIYKASSLESGVPSRFSGSGSGTEFTLTISSLQPDDLATYYCQQYNSFSWTFGQGTKVEIKR
